From patent publication US20240158499A1 (Janssen / Centocor, published 2024)

How the values were obtained:
[1] = target: T1, extracellular domain (ECD) of human CD79B isoform 1, CD9W7 (human); assay: SPR; hCD79B-long
T1 construct: It also carries C-terminal tag residues ending in a 6xHis tag; also called CD79b long isoform; hCD79B-long
T1 chain: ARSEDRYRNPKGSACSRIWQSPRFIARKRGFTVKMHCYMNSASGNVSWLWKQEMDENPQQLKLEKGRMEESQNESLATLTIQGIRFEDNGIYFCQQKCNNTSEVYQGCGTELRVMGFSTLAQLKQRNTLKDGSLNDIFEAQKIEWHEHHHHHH

[2] = target: T2, extracellular domain (ECD) of human CD79B isoform 2, CD9W8 (human); assay: SPR; hCD79B-short
T2 construct: It also carries C-terminal tag residues ending in a 6xHis tag; also called CD79b short isoform; hCD79B-short
T2 chain: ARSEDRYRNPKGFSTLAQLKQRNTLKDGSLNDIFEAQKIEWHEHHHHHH

B1: CD9B1256 (antibody, V domains shown)
VH: EVQLVESGPGLVEPSETLSLTCTVSGGSISSYYWSWIRQPAGKGLEWIGRIYSSGSTNYNPSLKSRVTMSVDTSENQFSLNLNSVTAADTAKYYCARGEYSGDLGGYGLDVWGQGTMVTVSS
VL: EIVMTQSPLSLSVTPGEPASISCRSSQSLLDSDDGNTYLDWYLQKPGQSPQLLIQTLSYRASGVPDRFSGRGSGTDFTLKISRVEAEDVGIYYCMQRMEFPLTFGGGTKVDIKR
notes: also called VR000056263
- Kd [1]: 0.78 nM
- Kd [2]: 2.21 nM
